Test results from patent US20180142038A1.

What was measured:
[1] = biological target: Ab-A lot 9 (load; eluate from a ceramic hydroxyapatite column); test: AGV HTRF assay as in Example 6, load of the Ab-1 NHS Sepharose column
[2] = biological target: Ab-A lot 9 (load; eluate from a ceramic hydroxyapatite column); test: AGV HTRF assay as in Example 6, load of the Ab-1 Streptavidin Plus Ultralink column
[3] = biological target: Ab-A lot 9, pooled flow-through of the Ab-1 functionalized GE NHS-activated Sepharose 4 Fast Flow resin; test: AGV HTRF assay as in Example 6, pooled flow-through of the Ab-1 NHS Sepharose column
[4] = biological target: Ab-A lot 9, pooled flow-through of the Ab-1 functionalized Pierce Streptavidin Plus Ultralink resin; test: AGV HTRF assay as in Example 6, pooled flow-through of the Ab-1 Streptavidin Plus Ultralink column
[5] = biological target: Ab-A lot 1; test: AGV HTRF assay (antibody 3 nM, antigen 1 nM, Eu anti-rabbit Fc donor, anti-human XL665 acceptor), signal relative to Ab-A lot 2

B1: Ab1 (antibody, V domains shown)
VH: QEQLVESGGGLVQPGASLTLTCTASGFSFSNTNYMCWVRQAPGRGLEWVGCMPVGFIASTFYATWAKGRSAISKSSSTAVTLQMTSLTVADTATYFCARESGSGWALNLWGQGTLVTVSS
VL: DPVLTQTPSPVSAAVGGTVTISCQASESVESGNWLAWYQQKPGQPPKLLIYYTSTLASGVPSRFKGSGSGAHFTLTISGVQCDDAATYYCQGAFYGVNTFGGGTEVVVKR
**Q.** With B1 as the binder, how does the Glycovariant signal in Load (POC) [1] read?
**A.** 9.3 POC

**Q.** And the Glycovariant signal in Load (POC) [2]?
**A.** 9.3 POC

**Q.** What about the Glycovariant signal in Flow-Through (POC) [3] of the same binder?
**A.** 6.3 POC

**Q.** And the Glycovariant signal in Flow-Through (POC) [4]?
**A.** 1.2 POC

**Q.** What about the percentage of control (POC), against Ab-A lot 2 (% of control (POC)) [5] of the same binder?
**A.** 25
